Data reported in PMC8803338.

Biological target: sarcomeric α-Actin (ACTC1) (mouse (endogenous in heart)) (UniProt P68033)
Assay: co-IP; heart lysates of CTL and α-MHC-cre DKO mice, mouse anti-α-Actin, Protein A/G beads, Western blot, densitometry (n = 4)

Substance: sarcomeric α-Actinin (ACTN) (from UniProt Q9JI91 1-894) (natural protein)
- fold change of ACTN co-precipitated with ACTC1, α-MHC-cre DKO hearts against CTL hearts: 0.63 fold
